In assay [1] the target is T1, human IL4Rα expressed on 293F-IL4Rα cell surface (human, UniProt P24394 26-825).
T1 construct: whole, on cells; also called human IL4Rα-expressing cells; cell surface IL4R
Put plainly: cell-based blocking FACS on 293F-IL4Rα cells; blocked ligand biotin human IL4.

Assay [2] deals with T1, human IL4Rα expressed on 293F-IL4Rα …. The assay is described as above. As to the method: Then, 1×10⁵ cells per well were incubated in 96 well-plates in 100 μL of serially diluted bispecific antibodies, the positive controls or negative control (starting at 100 nM with a 5-fold serial dilution) in FACS buffer for 40 minutes on ice. […] The plates were washed twice with FACS buffer, and then added and incubated for 40 minutes at 4° C. in dark with 100 μL/well R-Phycoerythrin Streptavidin (1:500 dilution in FACS buffer, Jackson Immunoresearch, Cat #016-110-084). Cells were washed twice and resuspended in FACS buffer. Fluorescence was measured using a Becton Dickinson FACS Canto II-HTS equipment. Data was analyzed using Graphpad Prism and IC₅₀ values were reported.
The source holds these as a separate data set.

The source of these data is patent US20260109758A1 (BIOSION, published 2026).

Read-outs that look alike come from different tables or passages of the source.

B1: BSI-502-005 (bispecific antibody, human IgG1, kappa)
heavy: QVQLVQSGAEVKKPGASVKVSCKASGYTFTTYWMHWVRQAPGQGLEWMGVIDPSDSDTTYNQKFKGRVTMTRDTSTSTVYMELSSLRSEDTAVYYCTRSLDGYYDYWGQGTLVTVSSASTKGPSVFPLAPSSKSTSGGTAALGCLVKDYFPEPVTVSWNSGALTSGVHTFPAVLQSSGLYSLSSVVTVPSSSLGTQTYICNVNHKPSNTKVDKKVEPKSCDKTHTCPPCPAPEAQGGPSVFLFPPKPKDTLYITREPEVTCVVVDVSHEDPEVKFNWYVDGVEVHNAKTKPREEQYNSTYRVVSVLTVLHQDWLNGKEYKCQVSNKALPAPIEKTISKAKGQPREPQVYTLPPSRDELTKNQVSLTCLVKGFYPSDIAVEWESNGQPENNYKTTPPVLDSDGSFFLYSKLTVDKSRWQQGNVFSCSVMHEALHNHYTQKSLSLSPGKGGGGSGGGGSEVQLVESGGGLVQPGGSLRLSCAASGFTFSTYGMSWVRQAPGKGLVWVATINSNGGSTSYPDSVKGRFTISRDNAKNTLYLQMNSLRAEDTAVYYCARFFRFRNAMDYWGQGTLVTVSSGGGGSGGGGSGGGGSGGGGSDIQMTQSPSSLSASVGDRVTITCRTSENIYSYLAWYQQKPGKAPKFLVYNAKTLAEGVPSRFSGSGSGTDFTLTISSLQPEDFATYYCQHYYGPPTWTFGQGTKVEIK
light: DIQMTQSPSSLSASVGDRVTITCRPTENIYSYLAWYQQKPGKAPKLLIYFARTLAEGVPSRFSGSGSGTDFTLTISSLQPEDFATYYCQHHYGTPWTFGGGTKVEIKRTVAAPSVFIFPPSDEQLKSGTASVVCLLNNFYPREAKVQWKVDNALQSGNSQESVTEQDSKDSTYSLSSTLTLSKADYEKHKVYACEVTHQGLSSPVTKSFNRGEC
notes: hu1C5F12E9-V8 IgG with an anti-IL4R scFv (VH-VL) at the C-terminus of the heavy chain; AQQ and YTE already stand in the entry
Broadly, the IC50 is the midpoint of a concentration-inhibition curve. B1 returned an IC50 in assay [1] of 0.381 nM.

B2: BSI-502-002 (bispecific antibody, human IgG1, kappa)
heavy: EVQLVESGGGLVQPGGSLRLSCAASGFTFSTYGMSWVRQAPGKGLVWVATINSNGGSTSYPDSVKGRFTISRDNAKNTLYLQMNSLRAEDTAVYYCARFFRFRNAMDYWGQGTLVTVSSASTKGPSVFPLAPSSKSTSGGTAALGCLVKDYFPEPVTVSWNSGALTSGVHTFPAVLQSSGLYSLSSVVTVPSSSLGTQTYICNVNHKPSNTKVDKKVEPKSCDKTHTCPPCPAPEAQGGPSVFLFPPKPKDTLYITREPEVTCVVVDVSHEDPEVKFNWYVDGVEVHNAKTKPREEQYNSTYRVVSVLTVLHQDWLNGKEYKCQVSNKALPAPIEKTISKAKGQPREPQVYTLPPSRDELTKNQVSLTCLVKGFYPSDIAVEWESNGQPENNYKTTPPVLDSDGSFFLYSKLTVDKSRWQQGNVFSCSVMHEALHNHYTQKSLSLSPGKGGGGSGGGGSDIQMTQSPSSLSASVGDRVTITCRPTENIYSYLAWYQQKPGKAPKLLIYFARTLAEGVPSRFSGSGSGTDFTLTISSLQPEDFATYYCQHHYGTPWTFGGGTKVEIKGGGGSGGGGSGGGGSGGGGSQVQLVQSGAEVKKPGASVKVSCKASGYTFTTYWMHWVRQAPGQGLEWMGVIDPSDSDTTYNQKFKGRVTMTRDTSTSTVYMELSSLRSEDTAVYYCTRSLDGYYDYWGQGTLVTVSS
light: DIQMTQSPSSLSASVGDRVTITCRTSENIYSYLAWYQQKPGKAPKFLVYNAKTLAEGVPSRFSGSGSGTDFTLTISSLQPEDFATYYCQHYYGPPTWTFGQGTKVEIKRTVAAPSVFIFPPSDEQLKSGTASVVCLLNNFYPREAKVQWKVDNALQSGNSQESVTEQDSKDSTYSLSSTLTLSKADYEKHKVYACEVTHQGLSSPVTKSFNRGEC
notes: huC2C1A1A1-V15 IgG with an anti-TSLP scFv (VL-VH) at the C-terminus of the heavy chain; AQQ and YTE already stand in the entry
As to B2, the IC50 in assay [2] turned out to be 0.144 nM.

B3: BSI-502-008 (bispecific antibody, human IgG1, kappa)
heavy: DIQMTQSPSSLSASVGDRVTITCRPTENIYSYLAWYQQKPGKAPKLLIYFARTLAEGVPSRFSGSGSGTDFTLTISSLQPEDFATYYCQHHYGTPWTFGGGTKVEIKGGGGSGGGGSGGGGSGGGGSQVQLVQSGAEVKKPGASVKVSCKASGYTFTTYWMHWVRQAPGQGLEWMGVIDPSDSDTTYNQKFKGRVTMTRDTSTSTVYMELSSLRSEDTAVYYCTRSLDGYYDYWGQGTLVTVSSGGGGSGGGGSEVQLVESGGGLVQPGGSLRLSCAASGFTFSTYGMSWVRQAPGKGLVWVATINSNGGSTSYPDSVKGRFTISRDNAKNTLYLQMNSLRAEDTAVYYCARFFRFRNAMDYWGQGTLVTVSSASTKGPSVFPLAPSSKSTSGGTAALGCLVKDYFPEPVTVSWNSGALTSGVHTFPAVLQSSGLYSLSSVVTVPSSSLGTQTYICNVNHKPSNTKVDKKVEPKSCDKTHTCPPCPAPEAQGGPSVFLFPPKPKDTLYITREPEVTCVVVDVSHEDPEVKFNWYVDGVEVHNAKTKPREEQYNSTYRVVSVLTVLHQDWLNGKEYKCQVSNKALPAPIEKTISKAKGQPREPQVYTLPPSRDELTKNQVSLTCLVKGFYPSDIAVEWESNGQPENNYKTTPPVLDSDGSFFLYSKLTVDKSRWQQGNVFSCSVMHEALHNHYTQKSLSLSPG
light: B2 light
notes: huC2C1A1A1-V15 IgG with an anti-TSLP scFv (VL-VH) at the N-terminus of the heavy chain; AQQ and YTE already stand in the entry
In the case of B3, the IC50 in assay [1] came out at 0.169 nM.

B4: BSI-502-007 (bispecific antibody, human IgG1, kappa)
heavy: QVQLVQSGAEVKKPGASVKVSCKASGYTFTTYWMHWVRQAPGQGLEWMGVIDPSDSDTTYNQKFKGRVTMTRDTSTSTVYMELSSLRSEDTAVYYCTRSLDGYYDYWGQGTLVTVSSGGGGSGGGGSGGGGSGGGGSDIQMTQSPSSLSASVGDRVTITCRPTENIYSYLAWYQQKPGKAPKLLIYFARTLAEGVPSRFSGSGSGTDFTLTISSLQPEDFATYYCQHHYGTPWTFGGGTKVEIKGGGGSGGGGSEVQLVESGGGLVQPGGSLRLSCAASGFTFSTYGMSWVRQAPGKGLVWVATINSNGGSTSYPDSVKGRFTISRDNAKNTLYLQMNSLRAEDTAVYYCARFFRFRNAMDYWGQGTLVTVSSASTKGPSVFPLAPSSKSTSGGTAALGCLVKDYFPEPVTVSWNSGALTSGVHTFPAVLQSSGLYSLSSVVTVPSSSLGTQTYICNVNHKPSNTKVDKKVEPKSCDKTHTCPPCPAPEAQGGPSVFLFPPKPKDTLYITREPEVTCVVVDVSHEDPEVKFNWYVDGVEVHNAKTKPREEQYNSTYRVVSVLTVLHQDWLNGKEYKCQVSNKALPAPIEKTISKAKGQPREPQVYTLPPSRDELTKNQVSLTCLVKGFYPSDIAVEWESNGQPENNYKTTPPVLDSDGSFFLYSKLTVDKSRWQQGNVFSCSVMHEALHNHYTQKSLSLSPG
light: B2 light
notes: huC2C1A1A1-V15 IgG with an anti-TSLP scFv (VH-VL) at the N-terminus of the heavy chain; AQQ and YTE already stand in the entry
In assay [1], B4 had an IC50 of 0.199 nM.
